Results on 2 molecules are retold here after patent US20170306031A1 (NGM BIOPHARMACEUTICALS, published 2017).

Read-outs that look alike come from different tables or passages of the source. Bounds are passed on as bounds.

For orientation: Kd means the constant that tells how readily two partners part at equilibrium. The koff is the rate constant with which the complex falls apart. Higher therefore signals fast dissociation.

The target of experiment [1] is T1, human GFRAL (analyte in Biacore assays) (human, UniProt Q6UXV0 19-351, limits assumed).
T1 construct: injected in solution over captured antibody; also called hGFRAL
T1 sequence: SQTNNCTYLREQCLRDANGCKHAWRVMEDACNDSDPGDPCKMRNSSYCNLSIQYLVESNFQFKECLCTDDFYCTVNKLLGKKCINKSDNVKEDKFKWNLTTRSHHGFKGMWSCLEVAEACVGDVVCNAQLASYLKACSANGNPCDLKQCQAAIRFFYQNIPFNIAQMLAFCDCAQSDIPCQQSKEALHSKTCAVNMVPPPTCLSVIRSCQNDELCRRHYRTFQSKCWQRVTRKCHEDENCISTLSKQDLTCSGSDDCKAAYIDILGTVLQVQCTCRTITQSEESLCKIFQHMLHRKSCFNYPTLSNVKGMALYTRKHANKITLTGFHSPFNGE
In words: Biacore SPR, antibody captured, human GFRAL injected. The method in brief:
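Purified humanized antibodies captured (~100 RU) on anti-mouse Fc immobilized by amine coupling on a CM5 chip, with a reference flow cell.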

For experiment [2], the target named is T2, human GFRAL expressed on cells (human, UniProt Q6UXV0 20-394).
T2 sequence: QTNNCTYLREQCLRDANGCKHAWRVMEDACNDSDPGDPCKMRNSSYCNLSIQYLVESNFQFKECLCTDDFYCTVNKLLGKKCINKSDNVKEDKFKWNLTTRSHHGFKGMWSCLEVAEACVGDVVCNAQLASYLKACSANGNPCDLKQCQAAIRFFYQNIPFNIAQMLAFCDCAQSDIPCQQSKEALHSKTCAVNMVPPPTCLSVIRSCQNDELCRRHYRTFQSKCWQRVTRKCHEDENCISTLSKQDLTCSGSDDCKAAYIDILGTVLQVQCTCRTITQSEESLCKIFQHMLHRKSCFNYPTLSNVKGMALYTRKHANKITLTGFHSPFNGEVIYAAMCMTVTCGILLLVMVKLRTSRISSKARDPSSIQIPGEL
In words: cell-based or functional assay.

Experiment [3] concerns the target T2, human GFRAL expressed on cells. In words: cell-based or functional assay. This is another data set of the same source.
Experiment [4] shares this target. As to the kind of experiment: cell-based or functional assay. The source holds these as a separate data set.
In experiment [5] the target is T3, mouse GFRAL (analyte in Biacore assays) (mouse, UniProt Q6SJE0 20-349, limits assumed).
T3 construct: injected in solution over captured antibody
T3 sequence: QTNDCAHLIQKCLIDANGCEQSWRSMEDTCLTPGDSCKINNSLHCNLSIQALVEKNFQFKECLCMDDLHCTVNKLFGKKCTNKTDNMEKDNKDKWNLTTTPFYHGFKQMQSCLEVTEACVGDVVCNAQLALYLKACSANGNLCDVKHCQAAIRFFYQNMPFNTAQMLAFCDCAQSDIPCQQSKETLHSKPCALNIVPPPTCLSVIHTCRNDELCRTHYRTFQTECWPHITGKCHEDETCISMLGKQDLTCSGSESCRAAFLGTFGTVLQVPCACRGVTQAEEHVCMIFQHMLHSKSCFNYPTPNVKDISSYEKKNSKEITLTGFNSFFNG
As to the kind of experiment: Biacore SPR, antibody captured, GFRAL injected. Background: SPR reads the build-up and loss of mass on a sensor chip optically.

In experiment [6] the target is T1, human GFRAL (analyte in Biacore assays). As to the kind of experiment: Biacore SPR, antibody captured, GFRAL injected.
For experiment [7], the target named is T4, mouse GFRAL expressed on cells (mouse, UniProt Q6SJE0 20-393).
T4 sequence: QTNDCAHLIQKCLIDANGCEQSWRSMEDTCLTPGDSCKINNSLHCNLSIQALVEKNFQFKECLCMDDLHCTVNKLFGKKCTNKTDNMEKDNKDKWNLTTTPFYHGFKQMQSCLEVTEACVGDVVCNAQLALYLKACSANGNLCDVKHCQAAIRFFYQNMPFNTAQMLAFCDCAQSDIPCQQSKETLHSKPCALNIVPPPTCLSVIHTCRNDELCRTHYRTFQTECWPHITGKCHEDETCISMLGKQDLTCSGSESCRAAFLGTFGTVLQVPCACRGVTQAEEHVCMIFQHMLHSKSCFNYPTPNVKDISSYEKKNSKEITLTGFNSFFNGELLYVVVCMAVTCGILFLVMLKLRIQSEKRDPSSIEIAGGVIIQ
In words: cell-based or functional assay.

Experiment [8] concerns the target T2, human GFRAL expressed on cells. As to the kind of experiment: cell-based or functional assay. The source holds these as a separate data set.
Another experiment concerns the target T5, GFRα1 (UniProt P56159 25-429, limits assumed).
T5 construct: also called GNFR alpha 1; receptor GFRα1
T5 sequence (looked up): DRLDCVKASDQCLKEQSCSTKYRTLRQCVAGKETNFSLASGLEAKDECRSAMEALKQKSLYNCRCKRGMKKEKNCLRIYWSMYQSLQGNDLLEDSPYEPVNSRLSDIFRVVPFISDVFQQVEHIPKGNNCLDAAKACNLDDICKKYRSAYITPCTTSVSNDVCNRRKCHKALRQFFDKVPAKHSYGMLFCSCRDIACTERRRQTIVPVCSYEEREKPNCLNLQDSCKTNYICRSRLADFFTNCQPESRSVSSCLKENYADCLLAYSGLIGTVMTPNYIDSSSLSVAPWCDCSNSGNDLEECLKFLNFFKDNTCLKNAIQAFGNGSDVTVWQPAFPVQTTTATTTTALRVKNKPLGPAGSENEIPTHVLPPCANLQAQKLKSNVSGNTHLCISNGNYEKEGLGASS
As to the kind of experiment: SPR, GFRα1 on chip surface (FIGS. 13A and 13B).

B1: antibody designated 3P10 (antibody, V domains shown)
VH: QIQLVQSGPELKKPGETVKISCKASGYTFTDYGVIWVKQAPGKALKWMGWINTYTGEPTYADDLKGRFAFSLETSASSASLQINNLKNEDTATYFCARRYGPEDIDYWGQGTTLTVSS
VL: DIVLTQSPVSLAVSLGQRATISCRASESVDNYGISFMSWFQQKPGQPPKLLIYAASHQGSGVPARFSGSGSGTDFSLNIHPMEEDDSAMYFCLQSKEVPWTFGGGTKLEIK
notes: mouse hybridoma monoclonal; also called 3P10 Hybridoma; m3P10
In the case of B1, the dissociation constant (Kd) in experiment [1] was less than 0.01 nM; in experiment [5] it was less than 0.1 nM; in experiment [6], less than 0.1 nM. Moreover, the “IC50, ERK phosphorylation in U2OS hGFRAL/hRET cells” value in experiment [2] worked out at 5.46 nM; in experiment [4] it was 0.08 nM. Besides, the “IC50, ELK1-luciferase reporter (hGFRAL/hRET)” value came out at 4.02 nM in [3] and 4.09 nM in experiment [8]. Besides, the koff in experiment [5] and in experiment [6] was approximately 1e-05 s⁻¹ throughout. For the same molecule, the “IC50, ELK1-luciferase reporter (mGFRAL/mRET)” value in experiment [7] is 1.03 nM.

B2: humanized anti-GFRAL antibody HC-344e/LC-344h (antibody, IgG1, V domains shown)
VH: QVQLVQSGAEVKKPGSSVKVSCKASGYTFTDYGVIWVRQAPGQGLEWMGWINTYTGEPTYADDLKGRVTFTADESTSTAYMELSSLRSEDTAVYYCARRYGPEDIDYWGQGTTVTVSS
VL: DVVLTQSPLSLPVTLGQPASISCRASESVDNYGISFMSWFQQRPGQSPRLLIYAASHQGSGVPDRFSGSGSGTDFTLKISRVEAEDVGVYFCLQSKEVPWTFGGGTKVEIK
notes: humanized 3P10; also called h3P10
B2: in [1], the Kd is less than 0.01 nM. Moreover, the binding result in the experiment with GFRα1 is on record as “no binding”. Besides, the “IC50, ERK phosphorylation in U2OS hGFRAL/hRET cells” value in experiment [2] came out at 3.3 nM. The “IC50, ELK1-luciferase reporter (hGFRAL/hRET)” value in experiment [3] was 6.95 nM.
